Assay [1] addresses T1, human MCAM-Fc protein (extracellular domain of human MCAM fused to human IgG) (human, UniProt P43121 24-559).
T1 construct: also called hMCAM-Fc; MCAMhFc
T1 chain: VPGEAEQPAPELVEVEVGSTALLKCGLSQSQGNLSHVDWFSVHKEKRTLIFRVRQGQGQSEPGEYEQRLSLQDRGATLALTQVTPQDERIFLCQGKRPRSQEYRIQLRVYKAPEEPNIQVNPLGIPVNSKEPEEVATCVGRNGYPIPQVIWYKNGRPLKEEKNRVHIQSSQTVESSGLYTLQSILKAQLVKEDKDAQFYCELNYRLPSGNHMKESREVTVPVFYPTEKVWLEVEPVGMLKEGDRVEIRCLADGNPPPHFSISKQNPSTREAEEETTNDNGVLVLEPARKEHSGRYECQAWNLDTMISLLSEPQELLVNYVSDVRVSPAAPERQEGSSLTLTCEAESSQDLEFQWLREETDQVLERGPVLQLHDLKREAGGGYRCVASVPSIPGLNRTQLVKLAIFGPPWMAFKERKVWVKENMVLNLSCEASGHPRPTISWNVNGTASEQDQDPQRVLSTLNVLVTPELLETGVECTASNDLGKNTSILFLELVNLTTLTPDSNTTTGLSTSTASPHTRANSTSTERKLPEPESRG
Put plainly: summary sentence of Example 3 (ForteBio, MCAMhFc). An excerpt:
(§1) The following protocol was used: ForteBio anti-human IgG Fc biosensors were used to immobilize various MCAMhFc domains including full length MCAMhFc protein on to biosensor surface. […] After loading these samples into a black 96 well plate, the Octet Red was programmed as follows: 60 seconds for baseline #1; 180 seconds for loading various domains; 60 seconds for baseline #2; 180 seconds for association of antibody to domain; and 240 seconds for dissociation of antibody from domain.
(§2) Reagents and Supplies Used: [0358] 1. MCAMhFc final concentration @ 5 ug/ml [0359] […] 3. ForteBio anti-human IgG Fc Capture (AHC) biosensors for kinetics experiments, cat#18-5060 [0361] 4. Block 96 well plate from Greiner Bio-one, cat#655209 [0362] 5. ForteBio Octet Red machine [0363] 6. Fresh tissue culture medium, DMEM with 20% FCS, was used as buffer for dilution
In general terms: BLI is a label-free optical method that tracks binding on a fibre tip over time.

Assay [2] has as its target T2, human MCAM domain 1 hFc construct (human, UniProt P43121 19-129).
T2 construct: One of the 'various MCAMhFc domains' loaded on the ForteBio sensors; also called MCAMhFc domain 1
T2 sequence: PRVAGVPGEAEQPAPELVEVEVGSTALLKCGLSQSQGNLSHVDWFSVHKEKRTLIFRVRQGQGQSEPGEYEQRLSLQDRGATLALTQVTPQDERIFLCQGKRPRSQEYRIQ
Put plainly: ForteBio Octet Red, MCAMhFc domains on anti-human IgG Fc sensors.
Source text: as §1, §2

The target of assay [3] is T3, human MCAM domain 2 hFc construct (human, UniProt P43121 139-242).
T3 construct: One of the 'various MCAMhFc domains' loaded on the ForteBio sensors; also called MCAMhFc domain 2
T3 sequence: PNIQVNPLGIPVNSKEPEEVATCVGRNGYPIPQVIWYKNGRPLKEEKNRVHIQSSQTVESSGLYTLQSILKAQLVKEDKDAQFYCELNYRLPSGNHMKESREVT
Described as above.
Source text: as §1, §2

Assay [4] concerns the target T4, human MCAM domains 1 and 2 hFc construct (human, UniProt P43121 19-242).
T4 construct: One of the 'various MCAMhFc domains' loaded on the ForteBio sensors
T4 sequence: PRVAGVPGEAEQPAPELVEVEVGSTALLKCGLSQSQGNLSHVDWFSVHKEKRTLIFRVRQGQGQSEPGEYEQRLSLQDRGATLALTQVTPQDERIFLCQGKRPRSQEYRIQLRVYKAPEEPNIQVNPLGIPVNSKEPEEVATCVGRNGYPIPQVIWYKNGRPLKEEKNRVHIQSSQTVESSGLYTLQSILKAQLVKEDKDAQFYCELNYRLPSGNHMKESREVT
The description is as above.
Source text: as §1, §2

The target of assay [5] is T5, human MCAM domain 3 hFc construct (human, UniProt P43121 244-321).
T5 construct: One of the 'various MCAMhFc domains' loaded on the ForteBio sensors; also called MCAMhFc domain 3
T5 sequence: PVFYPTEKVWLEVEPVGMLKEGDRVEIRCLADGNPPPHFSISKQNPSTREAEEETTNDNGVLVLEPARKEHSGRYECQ
Put plainly: ForteBio Octet Red, MCAMhFc domains on anti-human IgG Fc sensors, antibody at 5 ug/ml.
Source text: as §1, §2

Assay [6] has as its target T6, human MCAM expressed on CHO cells (full length human MCAM gene) (human, UniProt P43121 24-646).
T6 construct: also called hMCAM expressing CHO cells; CD146
T6 chain: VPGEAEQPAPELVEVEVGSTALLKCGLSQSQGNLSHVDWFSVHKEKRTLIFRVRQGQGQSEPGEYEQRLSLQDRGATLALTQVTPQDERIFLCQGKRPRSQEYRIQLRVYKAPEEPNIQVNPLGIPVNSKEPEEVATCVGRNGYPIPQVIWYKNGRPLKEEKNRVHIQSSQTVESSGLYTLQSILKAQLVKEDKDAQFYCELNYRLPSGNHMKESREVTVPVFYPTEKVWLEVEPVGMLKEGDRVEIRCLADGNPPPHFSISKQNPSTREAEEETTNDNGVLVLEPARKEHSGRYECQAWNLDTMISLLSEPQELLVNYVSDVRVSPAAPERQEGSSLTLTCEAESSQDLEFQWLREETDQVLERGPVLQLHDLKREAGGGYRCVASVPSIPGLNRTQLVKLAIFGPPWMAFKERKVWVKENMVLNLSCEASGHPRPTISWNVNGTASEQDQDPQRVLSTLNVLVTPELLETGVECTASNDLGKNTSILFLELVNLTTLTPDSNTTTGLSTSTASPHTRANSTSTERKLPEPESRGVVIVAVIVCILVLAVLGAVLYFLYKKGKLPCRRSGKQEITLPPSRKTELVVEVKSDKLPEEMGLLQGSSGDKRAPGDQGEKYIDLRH
Put plainly: flow cytometry: blocking of recombinant human laminin 411 (20 ug/ml) binding to CHO cells expressing human MCAM. The procedure: The 87 independent mouse fusion clones and 26 independent rat fusion clones described in Example 1 above as being capable of (i) binding to human MCAM, and (ii) blocking the interaction between human MCAM and the α-4 chain of laminin were further characterized as follows. First, IC50 quantitation for the ability of the monoclonal antibody to block the binding of human MCAM to the α-4 chain of laminin was determined as follows. CHO cells expressing human MCAM were incubated with an anti-human MCAM antibody (at various concentrations) for 30 minutes at 4 degrees Celsius. […] Unbound laminin was then washed away, and the laminin bound to the surface of the cells was detected with fluorescently labeled anti-laminin antibodies. After washing, the amount of laminin bound to the surface was detected by flow cytometry, and IC50s were calculated based on the mean fluorescent intensity.
Amino acid and nucleic acid sequences of the heavy and light chains of these antibodies, and their hypervariable regions, are provided in SEQ ID NOs:29-92. […] As such, each of these specific monoclonal antibodies was very capable of binding to human MCAM and inhibiting the interaction of cell-expressed human MCAM with its α-4 laminin binding ligand.
A general note: Flow cytometry measures light scatter and fluorescence of single cells or particles in a stream.

Assay [7] addresses laminin α-4 (UniProt Q16363 25-1823). Put plainly: FACS on MCAM mutants displayed on mammalian cells.
Assay [8] has as its target T7, recombinant hMCAM-His (human, UniProt P43121 24-559).
T7 chain: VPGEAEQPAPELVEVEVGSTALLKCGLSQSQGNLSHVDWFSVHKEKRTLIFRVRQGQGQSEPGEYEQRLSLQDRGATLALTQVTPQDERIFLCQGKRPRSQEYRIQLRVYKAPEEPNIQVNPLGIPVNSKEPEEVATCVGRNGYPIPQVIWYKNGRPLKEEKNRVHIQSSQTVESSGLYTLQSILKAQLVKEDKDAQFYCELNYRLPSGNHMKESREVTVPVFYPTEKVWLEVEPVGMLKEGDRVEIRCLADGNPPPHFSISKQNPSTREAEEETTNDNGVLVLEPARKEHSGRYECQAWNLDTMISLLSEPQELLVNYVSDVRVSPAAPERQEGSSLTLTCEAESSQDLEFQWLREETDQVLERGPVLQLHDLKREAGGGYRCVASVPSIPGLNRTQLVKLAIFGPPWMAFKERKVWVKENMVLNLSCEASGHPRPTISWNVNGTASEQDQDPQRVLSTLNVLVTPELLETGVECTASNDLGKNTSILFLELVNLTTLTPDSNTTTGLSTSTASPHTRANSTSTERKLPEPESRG
Put plainly: ForteBio Octet Red, antibody on anti-human Fc sensors, hMCAMHis analyte, 1:1 fit; affinity relative to rodent 2120, Expt. #1. How it is done:
The affinities were measured using the ForteBio Octet Red. Anti-human Fc sensors were used to capture the humanized antibodies, and several concentrations of hMCAMHis analyte were used to determine the affinity using a 1:1 fitting model.

Assay [9] concerns the target T7, recombinant hMCAM-His. Put plainly: competitive ELISA on coated hMCAM-His, competitor biotinylated rodent or chimeric 2120; IC50 relative to rodent 2120, Expt. #1. The procedure: The apparent affinities of the humanized antibodies were compared to the parental rodent or chimeric antibody in a competitive ELISA according to the following protocol: ELISA plates were coated with recombinant hMCAM-His, and blocked with casein buffer to prevent non-specific binding. Biotinylated rodent or chimeric antibody was added at a subsaturating concentration, in the presence or absence of 3× increasing concentrations of unlabeled competitor (humanized antibody, rodent, or chimeric). After washing to remove unbound antibody, streptavidin HRP was added to allow detection of the biotinylated antibody. The ELISA was developed with TMB substrate and the OD450 was measured. The IC50 of the unlabeled competitor was determined using the GraphPad Prism5 software.
(In general: ELISA stands for enzyme-linked immunosorbent assay.)

Sequence of laminin α-4 (Q16363 25-1823): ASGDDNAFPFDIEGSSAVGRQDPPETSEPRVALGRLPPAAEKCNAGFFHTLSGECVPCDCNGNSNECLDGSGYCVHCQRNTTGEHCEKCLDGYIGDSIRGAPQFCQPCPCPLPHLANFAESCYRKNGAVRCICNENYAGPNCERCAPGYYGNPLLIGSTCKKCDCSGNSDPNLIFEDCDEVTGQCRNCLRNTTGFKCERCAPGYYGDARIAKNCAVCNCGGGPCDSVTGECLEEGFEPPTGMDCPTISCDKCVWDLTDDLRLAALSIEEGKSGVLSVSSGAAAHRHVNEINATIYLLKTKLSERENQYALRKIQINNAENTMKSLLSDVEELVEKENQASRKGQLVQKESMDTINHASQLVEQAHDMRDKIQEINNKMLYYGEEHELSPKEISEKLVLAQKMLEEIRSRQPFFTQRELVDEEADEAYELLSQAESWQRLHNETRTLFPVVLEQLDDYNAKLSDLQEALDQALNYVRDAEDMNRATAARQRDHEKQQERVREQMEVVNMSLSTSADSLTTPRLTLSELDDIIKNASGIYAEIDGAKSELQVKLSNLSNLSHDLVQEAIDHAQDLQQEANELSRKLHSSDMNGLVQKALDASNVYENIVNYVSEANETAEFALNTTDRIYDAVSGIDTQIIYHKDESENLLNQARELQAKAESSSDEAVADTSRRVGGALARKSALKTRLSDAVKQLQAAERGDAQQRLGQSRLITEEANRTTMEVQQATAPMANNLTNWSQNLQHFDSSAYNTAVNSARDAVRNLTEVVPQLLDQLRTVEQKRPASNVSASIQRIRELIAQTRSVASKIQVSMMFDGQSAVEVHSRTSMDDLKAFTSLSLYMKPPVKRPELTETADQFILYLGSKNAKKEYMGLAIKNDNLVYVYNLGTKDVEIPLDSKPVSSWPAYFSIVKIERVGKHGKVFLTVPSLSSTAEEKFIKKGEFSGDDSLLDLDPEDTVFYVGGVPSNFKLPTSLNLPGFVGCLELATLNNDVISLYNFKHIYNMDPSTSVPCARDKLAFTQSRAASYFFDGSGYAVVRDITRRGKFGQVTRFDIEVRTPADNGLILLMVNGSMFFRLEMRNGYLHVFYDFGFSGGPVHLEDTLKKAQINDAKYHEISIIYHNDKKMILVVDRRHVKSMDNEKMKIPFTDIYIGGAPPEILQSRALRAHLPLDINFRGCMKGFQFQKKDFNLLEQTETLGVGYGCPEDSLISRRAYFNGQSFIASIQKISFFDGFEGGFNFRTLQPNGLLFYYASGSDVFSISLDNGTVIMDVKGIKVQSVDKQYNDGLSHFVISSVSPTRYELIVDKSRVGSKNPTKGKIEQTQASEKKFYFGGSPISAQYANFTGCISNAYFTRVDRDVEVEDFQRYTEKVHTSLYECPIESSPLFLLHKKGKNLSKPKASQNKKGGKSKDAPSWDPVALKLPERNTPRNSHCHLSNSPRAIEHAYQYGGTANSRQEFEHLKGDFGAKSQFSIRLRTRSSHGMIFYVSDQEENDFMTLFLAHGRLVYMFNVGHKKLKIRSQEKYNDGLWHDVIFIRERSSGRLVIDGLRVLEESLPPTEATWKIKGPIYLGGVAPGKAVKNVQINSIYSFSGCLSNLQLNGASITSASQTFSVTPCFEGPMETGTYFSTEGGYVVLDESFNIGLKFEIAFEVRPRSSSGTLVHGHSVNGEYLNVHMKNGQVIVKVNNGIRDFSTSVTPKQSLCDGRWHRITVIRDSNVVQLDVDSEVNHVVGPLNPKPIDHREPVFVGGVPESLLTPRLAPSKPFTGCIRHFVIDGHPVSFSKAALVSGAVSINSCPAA

B1: mouse anti-human MCAM monoclonal antibody clone 1414.1.2 (antibody, V domains shown)
VH: EIQLQQTGPELVKPGASVKISCKASGYSFTDYIMLWVKQSHGKSLEWIGNINPYSGSSGYNLKFKGKATLTVDKSSSTAYMQLNSLTSEDSAVYYCARGKDFAMDYWGQGTSVTVSS
VL: DIVMSQSPSSLAVSAGEKVTMSCKSSQSLLNSSTRKNFLAWYQQKPGQSPKLLIYWASTRESGVPDRFTGSGSGTDFTLTISSVQAEDLAVYYCKQSYNRYTFGGGTKLEIK
notes: Mouse hybridoma antibody
What is called IC50 is the concentration that inhibits the measured activity by half. For the molecule B1, the binding result in assay [1] is “binds”; in [2], “no binding (tested: 5 ug/ml)”; in assay [3] it was “no binding (tested: 5 ug/ml)”; in [4], “no binding (tested: 5 ug/ml)”; in assay [5], “binds”. Moreover, the IC50 in assay [6] was 0.431 µg/mL.

B2: mouse anti-human MCAM monoclonal antibody clone 1749.1.3 (antibody, V domains shown)
VH: DVKLVESGGDLVKPGGSLKLSCAASGFTFSSYIMSWVRQTPEKRLEWVATISSGGSSTYYPDSVKGRFTISRDNAKNTLYLQMSSLKSEDTAMYYCTRDDDYDVKVFAYWGQGTLVTVSA
VL: DIVMSQSPSSLAVSAGEKVTMNCKSSRSLLNSRIRKNYLAWYQQKPGQSPKLLIYWASTRESGVPDRFTGSGSGTDFTLTISSVQAEDLAVYYCKQSYNLLTFGAGTKLELK
notes: Mouse hybridoma antibody
B2: the binding result in assay [1] is “binds”; in assay [2] it was “no binding (tested: 5 ug/ml)”; in [3] it was “no binding (tested: 5 ug/ml)”; in [4], “no binding (tested: 5 ug/ml)”; in [5], “binds”. Also, the IC50 in [6] turned out to be 0.545 µg/mL.

B3: human MCAM I141A mutant displayed on mammalian cells (Example 5) (receptor)
chain: VPGEAEQPAPELVEVEVGSTALLKCGLSQSQGNLSHVDWFSVHKEKRTLIFRVRQGQGQSEPGEYEQRLSLQDRGATLALTQVTPQDERIFLCQGKRPRSQEYRIQLRVYKAPEEPNAQVNPLGIPVNSKEPEEVATCVGRNGYPIPQVIWYKNGRPLKEEKNRVHIQSSQTVESSGLYTLQSILKAQLVKEDKDAQFYCELNYRLPSGNHMKESREVTVPVFYPTEKVWLEVEPVGMLKEGDRVEIRCLADGNPPPHFSISKQNPSTREAEEETTNDNGVLVLEPARKEHSGRYECQAWNLDTMISLLSEPQELLVNYVSDVRVSPAAPERQEGSSLTLTCEAESSQDLEFQWLREETDQVLERGPVLQLHDLKREAGGGYRCVASVPSIPGLNRTQLVKLAIFGPPWMAFKERKVWVKENMVLNLSCEASGHPRPTISWNVNGTASEQDQDPQRVLSTLNVLVTPELLETGVECTASNDLGKNTSILFLELVNLTTLTPDSNTTTGLSTSTASPHTRANSTSTERKLPEPESRGVVIVAVIVCILVLAVLGAVLYFLYKKGKLPCRRSGKQEITLPPSRKTELVVEVKSDKLPEEMGLLQGSSGDKRAPGDQGEKYIDLRH
notes: construct and any tag not described
Take B3: the binding result in assay [7] was “no binding”.

B4: humanized anti-MCAM antibody h2120_VH3 + h2120_VL3 (antibody, V domains shown)
VH: QVTLKESGPVLVKPTETLTLTCTVSGFSLTSSGVSWVRQPPGKALEWIAAISSGGTTYYNSAFKSRLTISRDTSKSQVVLTMTNMDPVDTATYYCARRYGYGWYFDFWGQGTLVTVSS
VL: DIQMTQSPSSLSASVGDRVTINCKASQNIYNSLAWYQQKPGKAPKVLIFNANSLQTGIPSRFSGSGSGTDFTLTISSLQPEDFATYYCQQFYSGYTFGQGTKLEIK
notes: Human IgG1 / human kappa; also called h2120VH3VL3; N-S deamidate VH + conservative VL
Regarding B4, in assay [8], the “Fold over rodent (Forte)” value was determined as 16.1 fold. The “Fold over rodent (ELISA)” value in assay [9] is 3.47 fold.

B5: mouse anti-human MCAM monoclonal antibody clone 1415.1.1 (antibody, V domains shown)
VH: QVQLQQPGAELVQPGAPVKLSCKASGYIFTSYWMNWVKQRPGRGLEWIGRIDPSDSKIHYNQKFKDKATLTVDRSSSTAYIQLGSLTSEDSAVYYCAKEGGLRRGDYAMDYWGQGTSVTVSS
VL: DIVMTQSPATLSVTPGDRVSLSCRASQSISDYLHWYQQKSHESPRLLIKYASQSISGIPSRFSGSGSGSDFTLSINSVEPEDVGVYYCQNGHNFPRTFGGGTKLEIK
notes: Mouse hybridoma antibody
For B5, the binding result is “binds” in [1]; “no binding (tested: 5 ug/ml)” in assay [2]; “no binding (tested: 5 ug/ml)” in assay [3]; “no binding (tested: 5 ug/ml)” in assay [4]; “binds” in assay [5]. Further, the IC50 in assay [6] turned out to be 0.307 µg/mL.

The record behind these values is US20170101470A1 (PROTHENA BIOSCIENCES, published 2017).
